Experimental data published in patent US7018836.

What was measured:
GST-Tat 1 86R = GST-Tat 1 86R (UniProt P04608)
[1] = molecular target: human P-TEFb from HeLa extract, detected through its kinase subunit PITALRE (human); experiment: cell-based or functional assay
Sequence of human P-TEFb from HeLa extract, detected through its kinase subunit PITALRE (human) (P50750 whole entry): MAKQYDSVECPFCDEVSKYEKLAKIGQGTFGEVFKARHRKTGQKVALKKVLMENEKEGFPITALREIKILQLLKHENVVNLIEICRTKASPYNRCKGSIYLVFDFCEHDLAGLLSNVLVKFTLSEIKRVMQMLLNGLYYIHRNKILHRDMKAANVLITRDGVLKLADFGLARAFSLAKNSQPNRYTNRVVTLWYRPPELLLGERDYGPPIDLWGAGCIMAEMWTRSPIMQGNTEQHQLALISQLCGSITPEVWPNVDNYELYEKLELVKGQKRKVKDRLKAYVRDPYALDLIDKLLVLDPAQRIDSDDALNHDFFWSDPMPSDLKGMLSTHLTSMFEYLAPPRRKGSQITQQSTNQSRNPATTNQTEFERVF

Sequence of GST-Tat 1 48Δ (P08515 1-218, tags or fused parts left off): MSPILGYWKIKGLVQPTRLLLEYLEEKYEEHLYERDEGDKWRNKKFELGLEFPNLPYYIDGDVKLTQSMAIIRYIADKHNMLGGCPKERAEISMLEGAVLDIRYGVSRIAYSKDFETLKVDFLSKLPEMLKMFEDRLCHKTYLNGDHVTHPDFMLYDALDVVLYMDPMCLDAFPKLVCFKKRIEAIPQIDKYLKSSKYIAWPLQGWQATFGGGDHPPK

Q: Which “phosphorylation of the CTD of RNA polymerase II” value (GST-Tat 1 86R) does the source give for “human P-TEFb from HeLa extract, detected through its kinase subunit PITALRE” here?
A: The GST-Tat 1 86R/P-TEFb protein complex can phosphorylate the CTD of RNA polymerase II

Q: “GST-Tat 1 48Δ (from UniProt P08515 1-218; P04608 1-48)” was tested. Which TAK activity (assayed by GST-Tat48A pull-down) after depletion of human P-TEFb from HNE by antibodies to PITALRE [1] did it give?
A: < 2%

Q: For “86 residue HIV-1 Tat followed by a streptavidin binding tag at its carboxyl terminus (from UniProt P04608 1-86)”, which runoff transcription from the HIV-1 LTR TAR template in HNE, continuous labeling [1] is on record?
A: 12 fold
